Measurements as given in the supplement of paper PMC11908140.

B1: library; numbered along this chain (parent)
chain: MRKPRAAVGSGHRKQAASQEGRQKHAKNNSQAKPSACDGLARQPEEVVLQASVSSYHLFRDVAEVTAFRGSLLSWYDQEKRDLPWRRRAEDEMDLDRRAYAVWVSEVMLQQTQVATVINYYTGWMQKWPTLQDLASASLEEVNQLWAGLGYYSRGRRLQEGARKVVEELGGHMPRTAETLQQLLPGVGRYTAGAIASIAFGQATGVVDGNVARVLCRVRAIGADPSSTLVSQQLWGLAQQLVDPARPGDFNQAAMELGATVCTPQRPLCSQCPVESLCRARQRVEQEQLLASGSLSGSPDVEECAPNTGQCHLCLPPSEPWDQTLGVVNFPRKASRKPPREESSATCVLEQPGALGAQILLVQRPNSGLLAGLWEFPSVTWEPSEQLQRKALLQELQRWAGPLPATHLRHLGEVVHTFSHIKLTYQVYGLALEGQTPVTTVPPGARWLTQEEFHTAAVSTAMKKVFRVYQGQQPGTCMGSKRSQVSSPCSRKKPRMGQQVLDNFFRSHISTDAHSLNSAAQ

Variants of: B1
Experiment: 8OG:A repair function score (normalized; synonymous = 0, nonsense = -1) (normalized log-likelihood score); higher = more repair activity (WT-like)
Conditions: with 8OG:A DNA repair reporter (GFP) in HEK-293 MUTYH KO cells
How it was run: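 Lentiviral MUTYH cDNA NNN codon-scan libraries in HEK-293 MUTYH knockout cells (10 pg/ml doxycycline) were co-transfected with an 8OG:A GFP repair reporter plus mCherry. At 72 h, viable mCherry+ cells were sorted into GFP+ (repair) and GFP− bins, three replicates per tile, then tile amplicons were sequenced. Per-tile Rosace fitness scores became a normalized repair function score anchored on synonymous and nonsense distributions. Synonymous medians were set to 0 and nonsense to -1; variants under 300 counts per million at the start were removed.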

Variant | 8OG:A repair function score
MRKPRAAVGSGHRKQAASQEGRQKHAKNNSQAKPSACDGLARQPEEVVLQASVSSYHLFRDVAEVTAFRGSLLSWYDQEKRDLPWRRRAEDEMDLDRRAYAVWVSEVMLQQTQVATVINYYTGWMQKWPTLQDLASASLEEVNQLWAGLGYYSRGRRLQEGARKVVEELGGHMPRTAETLQQLLPGVGRYTAGAIASIAFGQATGVVDGNVARVLCRVRAIGADPSSTLVSQQLWGLAQQLVDPARPGDFNQAAMELGATVCTPQRPLCSQCPVESLCRARQRVEQEQLLASGSLSGSPDVEECAPNTGQCHLCLPPSEPWDQTLGVVNFPRKASRKPPREESSATCVLEQPGALGAQILLVQRPNSGLLAGLWEFPSVTWEPSEQLQRKALLQELQRWAGPLPATHLRHLGEVVHTFSHIKLTYQVYGLALEGQTPVTTVPPGARWLTQEEFHTAAVSTAMKKVFRVYQGQQPGTCMGSKRSQVSSPCSRKKPRMGQQVLDNFFGSHISTDAHSLNSAAQ [R506G] | -0.0057
MRKPRAAVGSGHRKQAASQEGRQKHAKNNSQAKPSACDGLARQPEEVVLQASVSSYHLFRDVAEVTAFRGSLLSWYDQEKRDLPWRRRAEDEMDLDRRAYAVWVSEVMLQQTQVATVINYYTGWMQKWPTLQDLASASLEEVNQLWAGLGYYSRGRRLQEGARKVVEELGGHMPRTAETLQQLLPGVGRYTAGAIASIAFGQATGVVDGNVARVLCRVRAIGADPSSTLVSQQLWGLAQQLVDPARQGDFNQAAMELGATVCTPQRPLCSQCPVESLCRARQRVEQEQLLASGSLSGSPDVEECAPNTGQCHLCLPPSEPWDQTLGVVNFPRKASRKPPREESSATCVLEQPGALGAQILLVQRPNSGLLAGLWEFPSVTWEPSEQLQRKALLQELQRWAGPLPATHLRHLGEVVHTFSHIKLTYQVYGLALEGQTPVTTVPPGARWLTQEEFHTAAVSTAMKKVFRVYQGQQPGTCMGSKRSQVSSPCSRKKPRMGQQVLDNFFRSHISTDAHSLNSAAQ [P247Q] | -0.968
MRKPRAAVGSGHRKQAASQEGRQKHAKNNSQAKPSACDGLARQPEEVVLQASVSSYHLFRDVAEVTAFRGSLLSWYDQEKRDLPWRRRAEDEMDLDRRAYAVWVSEVMLQQTQVATVINYYTGWMQKWPTLQDLASASLEEVNQLWAGLGYYSRGRRLQEGARKVVEELGGHEPRTAETLQQLLPGVGRYTAGAIASIAFGQATGVVDGNVARVLCRVRAIGADPSSTLVSQQLWGLAQQLVDPARPGDFNQAAMELGATVCTPQRPLCSQCPVESLCRARQRVEQEQLLASGSLSGSPDVEECAPNTGQCHLCLPPSEPWDQTLGVVNFPRKASRKPPREESSATCVLEQPGALGAQILLVQRPNSGLLAGLWEFPSVTWEPSEQLQRKALLQELQRWAGPLPATHLRHLGEVVHTFSHIKLTYQVYGLALEGQTPVTTVPPGARWLTQEEFHTAAVSTAMKKVFRVYQGQQPGTCMGSKRSQVSSPCSRKKPRMGQQVLDNFFRSHISTDAHSLNSAAQ [M173E] | -1.13
MRKPRAAVGSGHRKQAASQEGRQKHAKNNSQAKPSACDGLARQPEEVVLQASVSSYHLFRDVAEVTAFRGSLLSWYDQEKRDLPWRRRAEDEMDLDRRALAVWVSEVMLQQTQVATVINYYTGWMQKWPTLQDLASASLEEVNQLWAGLGYYSRGRRLQEGARKVVEELGGHMPRTAETLQQLLPGVGRYTAGAIASIAFGQATGVVDGNVARVLCRVRAIGADPSSTLVSQQLWGLAQQLVDPARPGDFNQAAMELGATVCTPQRPLCSQCPVESLCRARQRVEQEQLLASGSLSGSPDVEECAPNTGQCHLCLPPSEPWDQTLGVVNFPRKASRKPPREESSATCVLEQPGALGAQILLVQRPNSGLLAGLWEFPSVTWEPSEQLQRKALLQELQRWAGPLPATHLRHLGEVVHTFSHIKLTYQVYGLALEGQTPVTTVPPGARWLTQEEFHTAAVSTAMKKVFRVYQGQQPGTCMGSKRSQVSSPCSRKKPRMGQQVLDNFFRSHISTDAHSLNSAAQ [Y100L] | -1.29
MRKPRAAVGSGHRKQAASQEGRQKHAKNNSQAKPSACDGLARQPEEVVLQASVSSYHLFRDVAEVTAFRGSLLSWYDQEKRDLPWRRRAEDEMDLDRRAYAVWVSEVMLQQTQVATVINYYTGWMQKWPTLQDLASASLEEVNQLWAGSGYYSRGRRLQEGARKVVEELGGHMPRTAETLQQLLPGVGRYTAGAIASIAFGQATGVVDGNVARVLCRVRAIGADPSSTLVSQQLWGLAQQLVDPARPGDFNQAAMELGATVCTPQRPLCSQCPVESLCRARQRVEQEQLLASGSLSGSPDVEECAPNTGQCHLCLPPSEPWDQTLGVVNFPRKASRKPPREESSATCVLEQPGALGAQILLVQRPNSGLLAGLWEFPSVTWEPSEQLQRKALLQELQRWAGPLPATHLRHLGEVVHTFSHIKLTYQVYGLALEGQTPVTTVPPGARWLTQEEFHTAAVSTAMKKVFRVYQGQQPGTCMGSKRSQVSSPCSRKKPRMGQQVLDNFFRSHISTDAHSLNSAAQ [L149S] | -0.335
MRKPRAAVGSGHRKQAASQEGRQKHAKNNSQAKPSACDGLARQPEEVVLQASVSSYHLFRDVAEVTAFRGSLLSWYDQEKRDLPWRRRAEDEMDLDRRAYAVWVSEVMLQQTQVATVINYYTGWMQKWPTLQDLASASLEEVNQLWAGLGYYSRGRRLQEGARKVVEELGGHMPRTAETLQQLLPGVGRYTAGAIASIAFGQATGVVDGNVARVLCRVRAIGADPSSTLVSQQLWGLAQQLVDPARPGDFNQAAMELGATVCTPQRPLCSQCPVESLCRARQRVEQEQLLASGSLSGSPDVEECAPNTGQCHLCLPPSEPWDQTLGVVNFPRKASRKPSREESSATCVLEQPGALGAQILLVQRPNSGLLAGLWEFPSVTWEPSEQLQRKALLQELQRWAGPLPATHLRHLGEVVHTFSHIKLTYQVYGLALEGQTPVTTVPPGARWLTQEEFHTAAVSTAMKKVFRVYQGQQPGTCMGSKRSQVSSPCSRKKPRMGQQVLDNFFRSHISTDAHSLNSAAQ [P339S] | -0.0594
MRKPRAAVGSGHRKQAASQEGRQKHAKNNSQAKPSACDGLARQPEEVVLQASVSSYHLFRDVAEVTAFRGSLLSWYIQEKRDLPWRRRAEDEMDLDRRAYAVWVSEVMLQQTQVATVINYYTGWMQKWPTLQDLASASLEEVNQLWAGLGYYSRGRRLQEGARKVVEELGGHMPRTAETLQQLLPGVGRYTAGAIASIAFGQATGVVDGNVARVLCRVRAIGADPSSTLVSQQLWGLAQQLVDPARPGDFNQAAMELGATVCTPQRPLCSQCPVESLCRARQRVEQEQLLASGSLSGSPDVEECAPNTGQCHLCLPPSEPWDQTLGVVNFPRKASRKPPREESSATCVLEQPGALGAQILLVQRPNSGLLAGLWEFPSVTWEPSEQLQRKALLQELQRWAGPLPATHLRHLGEVVHTFSHIKLTYQVYGLALEGQTPVTTVPPGARWLTQEEFHTAAVSTAMKKVFRVYQGQQPGTCMGSKRSQVSSPCSRKKPRMGQQVLDNFFRSHISTDAHSLNSAAQ [D77I] | -0.0954
MRKPRAAVGSGHRKQAASQEGRQKHAKNNSQAKPSACDGLARQPEEVVLQASVSSYHLFRDVAEVTAFRGSLLSWYDQEKRDLPWRRRAEDEMDLDRRAYAVWVSEVMLQQTQVATVINYYTGWMQKWPTLQDLASASLEEVNQLWAGLGYYSRGRRLQEGARKVVEELGGHMPRTAETLQQLLPGVGRYTAGAIASIAFGQATGVVDGNVARVLCRVRAIGADPSSTLVSQQLWGLAQQLVDPARPGDFNQAAMELGATVCTPQRPLCSQCPVESLCRARQRVEQEQLLASGSLSGSPDVEECAPNTGQCHLCLPPSEPWDQTLGVVNFPRKASRKPPREESSATEVLEQPGALGAQILLVQRPNSGLLAGLWEFPSVTWEPSEQLQRKALLQELQRWAGPLPATHLRHLGEVVHTFSHIKLTYQVYGLALEGQTPVTTVPPGARWLTQEEFHTAAVSTAMKKVFRVYQGQQPGTCMGSKRSQVSSPCSRKKPRMGQQVLDNFFRSHISTDAHSLNSAAQ [C347E] | -1.34
MRKPRAAVGSGHRKQAASQEGRQKHAKNNSQAKPSACDGLARQPEEVVLQASVSSYHLFRDVAEVTAFRGSLLSWYDQEKRDLPWRRRAEDEMDLDRRAYAVWVSEVMLQQTQVATVINYYTGWMQKWPTLQDLASASLEEVNQLWAGLGYYSRGRRLQEGARKVVEELGGHMPRTAETLQQLLPGVGRYTAGAIASIAFGQAVGVVDGNVARVLCRVRAIGADPSSTLVSQQLWGLAQQLVDPARPGDFNQAAMELGATVCTPQRPLCSQCPVESLCRARQRVEQEQLLASGSLSGSPDVEECAPNTGQCHLCLPPSEPWDQTLGVVNFPRKASRKPPREESSATCVLEQPGALGAQILLVQRPNSGLLAGLWEFPSVTWEPSEQLQRKALLQELQRWAGPLPATHLRHLGEVVHTFSHIKLTYQVYGLALEGQTPVTTVPPGARWLTQEEFHTAAVSTAMKKVFRVYQGQQPGTCMGSKRSQVSSPCSRKKPRMGQQVLDNFFRSHISTDAHSLNSAAQ [T204V] | 0.0534
MRKPRAAVGSGHRKQAASQEGRQKHAKNNSQAKPSACDGLARQPEEVVLQASVSSYHLFRDVAEVTAFRGSLLSWYDQEKRDLPWRRRAEDEMDLDRRAYAVWVSEVMLQQTQVATVINYYTGWMQKWPTLQDLASASLEEVNQLWAGLGYYSRGRRLQEGARKVVEELGGHMPRTAETLQQLLPGVGRYTAGAIASIAFGQATGVVDGNVARVLCRVRAIGADPSSTLVSQQLWGLAQQLVDPARPGDFNQAAMELGATVCTPQRPLCSQCPVESLCRARQRVEQEQLLASGSLSGSPDVEECAPNTGQCHLCLPPSEPWDQTLGVVNFPRKASRKPPREESSATCVLEQPGALGAQILLVQRPNSGLLAGLWEFPSVTWEPSEQLQRKALLQELQRWAGPLPATHLRHLGEVVHTFSHIKLTYQVYGLALEGQTPVTTVPPGARWLTQEEFHTAAVSTAMKKVFRVYQGQQPGTCMGSKRSQVSSPCSRKKPRMGQQVLDNFFRSHISTDAHMLNSAAQ [S515M] | -0.00894
MRKPRAAVGSGHRKQAASQEGRQKHAKNNSQAKPSACDGLARQPEEVVLQASVSSYHLFRDVAEVTAFRGSLLSWYDQEKRDLPWRRRAEDEMDLDRRAYAVWVSEVMLQQTQVATVINYYTGWMQKWPTLQDLASASLEEVNQLWAGLGYYSRGRRLQEGARKVVEELGGHMPRTAETLQQLLPGVGRYTAGAIASIAFGQATGVVDGNVARVLCRVRAIGADPSSTLVSQQLWGLAQQLVDPARPGDFNQAAMELGATVCTPQRPLCSQCPVESLCRARQRVEQEQLLASGSLSGSPDVEECAPNTRQCHLCLPPSEPWDQTLGVVNFPRKASRKPPREESSATCVLEQPGALGAQILLVQRPNSGLLAGLWEFPSVTWEPSEQLQRKALLQELQRWAGPLPATHLRHLGEVVHTFSHIKLTYQVYGLALEGQTPVTTVPPGARWLTQEEFHTAAVSTAMKKVFRVYQGQQPGTCMGSKRSQVSSPCSRKKPRMGQQVLDNFFRSHISTDAHSLNSAAQ [G309R] | -0.0133
MRKPRAAVGSGHRKQAASQEGRQKHAKNNSQAKPSACDGLARQPEEVVLQASVSSYHLFRDVAEVTAFRGSLLSWYDQEKRDLPWRRRAEDEMDLDRRAYAVWVSEVMLQQTQVATVINYYTGWMQKWPTLQDLASASLEEVNQLWAGLGYYSRGRRLQEGARKVVEELGGHMPRTAETLQQLLPGVGRYTAGAIASIAFGQATGVVDGNVARVLCRVRAIGADPSSTLVSQQLWGLAQQLVDPARPGDFNQAAMELGATVCTPQRPLCSQCPVESLCRARQRVEQEQLLASGSLSGSPDVEECAPNTGQCHLCLPPSEPWDQTLGVVNFPRKASRKPPREESSATCVLEQPGALGAQILLVQRPNSGLLAGLWEFPSVTWEPSEQLQRKALLQELQRWAGPLPATHLRHLGEVVHTFSHIKLTYQVYGLALEGQTPWTTVPPGARWLTQEEFHTAAVSTAMKKVFRVYQGQQPGTCMGSKRSQVSSPCSRKKPRMGQQVLDNFFRSHISTDAHSLNSAAQ [V438W] | -0.131
